Molecular target: IL-1 receptor (human) (UniProt P14778)
Assay: cell-based or functional assay

UniProt P14778, sequence (P14778 18-569): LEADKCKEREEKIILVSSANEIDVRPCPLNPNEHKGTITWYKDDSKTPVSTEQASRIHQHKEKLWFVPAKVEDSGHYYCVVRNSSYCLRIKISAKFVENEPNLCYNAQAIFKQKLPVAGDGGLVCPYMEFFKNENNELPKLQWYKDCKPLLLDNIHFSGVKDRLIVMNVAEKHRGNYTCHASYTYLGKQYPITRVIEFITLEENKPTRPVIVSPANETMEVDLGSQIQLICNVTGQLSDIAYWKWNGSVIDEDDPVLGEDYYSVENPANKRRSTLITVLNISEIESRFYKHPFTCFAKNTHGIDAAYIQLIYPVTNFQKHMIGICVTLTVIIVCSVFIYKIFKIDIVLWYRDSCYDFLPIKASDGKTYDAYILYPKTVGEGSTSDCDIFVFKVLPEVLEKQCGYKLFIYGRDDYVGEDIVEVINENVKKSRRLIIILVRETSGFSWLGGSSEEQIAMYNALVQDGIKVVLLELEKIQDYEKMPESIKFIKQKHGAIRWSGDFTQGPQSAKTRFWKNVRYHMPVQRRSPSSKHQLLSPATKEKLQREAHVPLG

IC50, inhibition of IL-1β induced production of IL-8 in human whole blood (100 pM rhIL-1β): 53.4 pM
Substance: Kineret® (anakinra) (from UniProt P18510 26-177) (ligand)

From patent US20120003226A1
